Data published in patent US20090068207A1, “Compositions Containing Beta 2-Glycoprotein I-Derived Peptides for the Prevention and/or Treatment of Vascular Disease” (Vascular Biogenics Ltd., priority 2005, published 2009).

Test system: aorta tissue from ApoE-KO mice
Experiment: RT-PCR analysis of cytokine expression in aorta
Type: in vivo
Conditions: oral 100 μg/mouse, 5 times every other day; male ApoE-KO mice
Experimental: RT-PCR analysis of cytokine expression: 7-9 week old male ApoE-KO mice were tolerized by oral administration of β2GPI in 5 feedings, every other day, of human β2GPI (100 μg/mouse) or PBS, as control, by gavage, as detailed hereinabove. Three days following the oral administration of β2GPI, the mice were sacrificed, aortas collected and processed for RT-PCR analysis of the expression of anti-inflammatory Th2 type cytokine IL-10 and the proinflammatory Th1-type cytokine IFN-γ. The RT-PCR analysis was performed according to the protocol as described in detail by Colle et al (Journal of Immunol Methods 1997; 175-184). Briefly, RNA was extracted from the aortal tissue and reverse transcribed according to well-known, standard protocols, and the transcription products subjected to PCR amplification using the following primers: IL-10-forward primer 5′ […] 3′ (SEQ ID NO: 1), located at nucleotide positions 256-278 of IL-10 (GenBank Accession No. NM 010548 (SEQ ID NO: 2)) and reverse primer 5′[…] 3′ (SEQ ID NO: 3), located at nucleotide positions 532-556 of IL-10 (GenBank Accession No. NM 010548 (SEQ ID NO: 2)); IFN-γ-forward primer 5′ […] 3′ (SEQ ID NO: 4), located at nucleotide positions 372-397 of IFN-γ (GenBank Accession No. NM 008337 (SEQ ID NO: 5)), reverse primer 5′ […] 3′ (SEQ ID NO: 6), located at nucleotide positions 804-827 of IFN-γ (GenBank Accession No. NM 008337 (SEQ ID NO: 5)); and β-actin-forward primer 5′ […] 3′ (SEQ ID NO: 7), located at nucleotide positions 230-252 of β-actin (GenBank Accession No. NM 007393 (SEQ ID NO: 8)), and reverse primer 5′ […] 3′ (SEQ ID NO: 9), located at nucleotide positions […] of β-actin (GenBank Accession No. NM 007393 (SEQ ID NO: 8)). The resultant amplified IL-10, IFN-γ and β-actin transcripts were separated by electrophoresis on an agarose gel, and visualized by ehtidium bromide staining.
Male ApoE-KO mice 7-9 weeks of age were treated by oral administration of human β2GPI (100 μg/mouse) or PBS, as control, by gavage, as detailed hereinabove, 5 times, on every other day. […]

B1: Human β2 GPI: human beta2-glycoprotein I (SEQ ID NO: 10) purified from serum (protein)
chain: MISPVLILFSSFLCHVAIAGRTCPKPDDLPFSTVVPLKTFYEPGEEITYSCKPGYVSRGGMRKFICPLTGLWPINTLKCTPRVCPFAGILENGAVRYTTFEYPNTISFSCNTGFYLNGADSAKCTEEGKWSPELPVCAPIICPPPSIPTFATLRVYKPSAGNNSLYRDTAVFECLPQHAMFGNDTITCTTHGNWTKLPECREVKCPFPSRPDNGFVNYPAKPTLYYKDKATFGCHDGYSLDGPEEIECTKLGNWSAMPSCKASCKLPVKKATVVYQGERVKIQEKFKNGMLHGDKVSFFCKNKEKKCSYTEDAQCIDGTIEVPKCFKEHSSLAFWKTDASDVKPC
  expression of IFN-γ in aorta (RT-PCR): inhibition of expression
  expression of IL-10 in aorta (RT-PCR): induction of expression
  tissue levels of β-actin gene transcripts (RT-PCR): without any influence
